Columns and labels:
FcγRI (human) = FcγRI (human) (UniProt P12314); assay: SPR (BIAcore T100, 25 °C); FcγRI captured by pentaHis antibody, antibody as analyte
FcγRIIA-R131 (human) = FcγRIIA-R131 (human) (UniProt P12318); assay: SPR (BIAcore T100, 25 °C); antibody immobilised, receptor as analyte, steady state fit
FcγRIIIA-V158 (human) = FcγRIIIA-V158 (human) (UniProt P08637); assay: as above
Sequence of FcγRIIIA-V158 (human) (P08637 17-208 F176V limits assumed): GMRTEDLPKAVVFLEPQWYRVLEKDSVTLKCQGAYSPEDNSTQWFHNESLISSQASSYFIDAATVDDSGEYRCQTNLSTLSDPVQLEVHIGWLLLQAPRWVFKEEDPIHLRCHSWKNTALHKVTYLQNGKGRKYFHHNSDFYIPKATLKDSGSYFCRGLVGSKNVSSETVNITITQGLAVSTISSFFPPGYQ

Sequence of FcγRI (human) (P12314 16-288 limits assumed): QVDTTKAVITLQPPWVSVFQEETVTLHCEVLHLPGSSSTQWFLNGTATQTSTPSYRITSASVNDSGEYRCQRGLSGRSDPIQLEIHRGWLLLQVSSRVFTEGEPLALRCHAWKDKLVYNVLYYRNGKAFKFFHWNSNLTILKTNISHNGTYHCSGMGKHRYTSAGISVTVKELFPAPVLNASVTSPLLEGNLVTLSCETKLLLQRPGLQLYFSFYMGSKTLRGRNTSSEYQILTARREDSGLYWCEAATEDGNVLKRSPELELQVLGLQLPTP
Sequence of FcγRIIA-R131 (human) (P12318 36-218 H167R limits assumed): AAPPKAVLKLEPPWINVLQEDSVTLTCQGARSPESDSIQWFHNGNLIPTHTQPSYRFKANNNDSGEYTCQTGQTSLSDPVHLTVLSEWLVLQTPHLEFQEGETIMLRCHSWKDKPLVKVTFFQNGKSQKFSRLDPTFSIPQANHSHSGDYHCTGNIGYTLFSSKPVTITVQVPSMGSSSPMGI
Sequence of IgG4 SPLE (antibody of Tables 1a and 1b, specificity not named) (Fc): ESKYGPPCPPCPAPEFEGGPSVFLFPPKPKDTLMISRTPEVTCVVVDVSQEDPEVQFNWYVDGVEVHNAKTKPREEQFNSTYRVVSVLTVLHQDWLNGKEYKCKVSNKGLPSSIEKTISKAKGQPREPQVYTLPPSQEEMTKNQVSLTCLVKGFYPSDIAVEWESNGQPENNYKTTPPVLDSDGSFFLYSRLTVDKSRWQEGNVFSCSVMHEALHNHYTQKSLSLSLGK

Substance	Kd (FcγRI (human))	Kd (FcγRIIA-R131 (human))	Kd (FcγRIIIA-V158 (human))
IgG1 P329G ge (antibody of Table 1a, specificity not named)	10 nM		
IgG1 P329G (antibody of Tables 1a and 1b, specificity not named)	6 nM		
anti-CD20 antibody IgG1 P329G	5.7 nM		
IgG4 SPLE (antibody of Tables 1a and 1b, specificity not named)		10000 nM	
IgG1 P329A ge (antibody of Table 1a, specificity not named)	8 nM	4400 nM	1800 nM
